The chains are these.
B1: Twister Ribozyme (parent)
chain: AACACUGCCAAUGCCGGUCCCAAGCCCGGAUAAAAGUGGAGGGGGCGG

This data set covers variants of B1. The experiment in a line: self-cleavage, relative activity (ratio to wild type); higher = more cleavage; co-transcriptional.
As for AAAACUGCCAAUGCCGGUCCCAAGCCCGGAUAAAAGUGGAUGGGGCGG [C3A G41U], the self-cleavage is 0.0613. Take AAAACUGCCAAUGCCGGUCCCAAGCCCGGAUAAAAGUGGAAGGGGCGG [C3A G41A]: the self-cleavage was found to be 0.0897. With AAGACUGCCAAUGCCGGUCCCAAGCCCGGAUAAAAGUGGAGGGGGCGU [C3G G48U] the figure was 0.549; with AAGACUGCCAAUGCCGGUCCCAAGCCCGGAUAAAAGUGGAGGGGGCGA [C3G G48A], 0.405; with AAGACUGCCAAUGCCGGUCCCAAGCCCGGAUAAAAGUGGAGGGGGCGC [C3G G48C], 0.65.

Take AAGACUGCCAAUGCCUGUCCCAAGCCCGGAUAAAAGUGGAGGGGGCGG [C3G G16U]: the self-cleavage turned out to be 0.608. With AAGACUGCCAAUGCCCGUCCCAAGCCCGGAUAAAAGUGGAGGGGGCGG [C3G G16C] the figure was 0.123; with AAGACUGCCAAUGCCAGUCCCAAGCCCGGAUAAAAGUGGAGGGGGCGG [C3G G16A], 0.271; with AAGACUGCCUAUGCCGGUCCCAAGCCCGGAUAAAAGUGGAGGGGGCGG [C3G A10U], 0.648. The value for AAGACUGCCCAUGCCGGUCCCAAGCCCGGAUAAAAGUGGAGGGGGCGG [C3G A10C] was 0.28.

For AAAACUGCCAAUGCCGGUCCCAAGCCCGGAUAAAAGUGGAGGUGGCGG [C3A G43U], the self-cleavage came out at 0.0615. The value for AAAACUGCCAAUGCCGGUCCCAAGCCCGGAUAAAAGUGGAGGCGGCGG [C3A G43C] was 0.0669.

On to AAGACUGCCAAUGCCGGUCCCAAGCCCGGAUAAAAGUGGAGGGGACGG [C3G G45A], for which the self-cleavage amounted to 0.479. AAGACUGCCAAUGCCGGUCCCAAGCCCGGAUAAAAGUGGAGGGGCCGG [C3G G45C]: the self-cleavage was 0.207. The value for AAGACUGCCAAUGCGGGUCCCAAGCCCGGAUAAAAGUGGAGGGGGCGG [C3G C15G] was 0.133; that for AAGACUGCCAAUGCUGGUCCCAAGCCCGGAUAAAAGUGGAGGGGGCGG [C3G C15U] was 0.389. As for AAGACUGCCAAUGCAGGUCCCAAGCCCGGAUAAAAGUGGAGGGGGCGG [C3G C15A], the self-cleavage is 0.161. The value for AAAACUGCCAAUGCCGGUCCCAAGCCCGGAUAAAAGUGGAGGGGACGG [C3A G45A] was 0.233; that for AAAACUGCCAAUGCCGGUCCCAAGCCCGGAUAAAAGUAGAGGGGGCGG [C3A G38A] was 0.268; that for AAAACUGCCAAUGCCGGUCCCAAGCCCGGAUAAAAGUUGAGGGGGCGG [C3A G38U] was 0.191. The value for AAAACUGCCAAUCCCGGUCCCAAGCCCGGAUAAAAGUGGAGGGGGCGG [C3A G13C] was 0.0651. The value for AAGACUGCCAAUGCCGGUCGCAAGCCCGGAUAAAAGUGGAGGGGGCGG [C3G C20G] was 0.0675; that for AAGACUGCCAAUGCCGGUCUCAAGCCCGGAUAAAAGUGGAGGGGGCGG [C3G C20U] was 0.295. With AAAACUGCCAAUGCCCGUCCCAAGCCCGGAUAAAAGUGGAGGGGGCGG [C3A G16C], the self-cleavage worked out at 0.0608.

Take AAAACUGCCAAUGCCAGUCCCAAGCCCGGAUAAAAGUGGAGGGGGCGG [C3A G16A]: the self-cleavage came out at 0.109. With AAGACUGCCAAUGCCGGUCCCAAGCCGGGAUAAAAGUGGAGGGGGCGG [C3G C27G], the self-cleavage came out at 0.0859.

On to AAGACUGCCAAUGCCGGUCCCAAGCCUGGAUAAAAGUGGAGGGGGCGG [C3G C27U], for which the self-cleavage was determined as 0.327. With AAUGCUGCCAAUGCCGGUCCCAAGCCCGGAUAAAAGUGGAGGGGGCGG [C3U A4G] the figure was 0.183. The value for AAGACUGCCAAUGCCGGUCCCAAGCCCGGAGAAAAGUGGAGGGGGCGG [C3G U31G] was 0.44; that for AAAACUGCCAAUGCCGGUCCCAAGCCCGGAUAAAAGUGGAGGGGGCCG [C3A G47C] was 0.145. The value for AAUACUGCCCAUGCCGGUCCCAAGCCCGGAUAAAAGUGGAGGGGGCGG [C3U A10C] was 0.61; that for AAGACUGCCAAUGCCGGUCCCAAGCUCGGAUAAAAGUGGAGGGGGCGG [C3G C26U] was 0.137. Turning to AAGACUGCCAAUGCCGGUCCCAAGCACGGAUAAAAGUGGAGGGGGCGG [C3G C26A], the self-cleavage is 0.121. The value for AAGACUGCCAAUGCCGUUCCCAAGCCCGGAUAAAAGUGGAGGGGGCGG [C3G G17U] was 0.0757. As for AAGACUGCCAAUGCCGCUCCCAAGCCCGGAUAAAAGUGGAGGGGGCGG [C3G G17C], the self-cleavage was determined as 0.0532. The value for AAGACUGCCACUGCCGGUCCCAAGCCCGGAUAAAAGUGGAGGGGGCGG [C3G A11C] was 0.295; that for AAGACUGCCAGUGCCGGUCCCAAGCCCGGAUAAAAGUGGAGGGGGCGG [C3G A11G] was 0.503.

As to AAGACUUCCAAUGCCGGUCCCAAGCCCGGAUAAAAGUGGAGGGGGCGG [C3G G7U], the self-cleavage came to 0.057. The value for AAGACUGCCAAUGCCGGUUCCAAGCCCGGAUAAAAGUGGAGGGGGCGG [C3G C19U] was 0.265; that for AAGACUGCCAAUGCCGGUGCCAAGCCCGGAUAAAAGUGGAGGGGGCGG [C3G C19G] was 0.107; that for AAUACUGCCAAUGCCGGUCCCAAGCCCGGAUAAAAGUGGAGGGGGCGG [C3U] was 0.48. With AAGACUGCCAAUGCCGGUCCCAAGCCCGGAUAAAAGUGGAGGGGGCGG [C3G] the figure was 0.541; with AAGACUGCCAAUGCCGGUCCCAAGCCCGGAUAAAAGUGGGGGGGGCGG [C3G A40G], 0.111; with AAGACUGCCAAUGCCGGUCCCAACCCCGGAUAAAAGUGGAGGGGGCGG [C3G G24C], 0.0852.

On to AAGACUGUCAAUGCCGGUCCCAAGCCCGGAUAAAAGUGGAGGGGGCGG [C3G C8U], for which the self-cleavage was 0.389.

Regarding AAGACUGGCAAUGCCGGUCCCAAGCCCGGAUAAAAGUGGAGGGGGCGG [C3G C8G], the self-cleavage is 0.153. Consider AAAACUGCCAAUGCCGGUCCCAAGCCCGGAUAAAAGUGGAGGGGGCGA [C3A G48A], for which the self-cleavage came out at 0.277. On to AAAACUGCCAAUGCCGGUCCCAAGCCCGGAUAAAAGUGGAGGGGGCGU [C3A G48U], for which the self-cleavage amounted to 0.282.

Turning to AAGACUGCCAAUGCCGGUCCCAAGCCCGGAUAAAAGUGGACGGGGCGG [C3G G41C], the self-cleavage turned out to be 0.0954. With AAGACUGCCAAUGCCGGUCCCAAGCCCGGAUAAAAGUGGAAGGGGCGG [C3G G41A] the figure was 0.209. The value for AAAACUUCCAAUGCCGGUCCCAAGCCCGGAUAAAAGUGGAGGGGGCGG [C3A G7U] was 0.0571. With AAAACUACCAAUGCCGGUCCCAAGCCCGGAUAAAAGUGGAGGGGGCGG [C3A G7A] the figure was 0.0709; with AAGACUGCCAAUGCCGGUCCCAAGCCCGGAUAAAAAUGGAGGGGGCGG [C3G G36A], 0.124; with AAGACUGCCAAUGCCGGUCCCAAGCCCGGAUAAAAUUGGAGGGGGCGG [C3G G36U], 0.144.
